This data set can be described thus: soluble on expression in E. coli; label from the status in PepcDB or PDB records.
As for “MSLDSKRYTFLLGPGQSCRTATDNFIALYDKRNSLEIKDIENAFNVEALSKEFFGKYKAQYEAFVNYMVDPTNGMRQHFIDTGFDHTGMAADKIRDREEKPIRDYVKKLLGRIVFLHFLQKKGWLGVPASKEWGEGDRDFMLNIFKNANERQKENFLDDILEDLFTEGLDRNRSDQGDLYDTKVEGFRNCRIPYLNGGLFERDILDKKPSHFPASYFNGLLTMLSQYNFTIDENDPNDAEVGVDPEMLGRIFENLLEDNKDKGAFYTPKEIVQYMCRESLIAYLQTDMREEDKECIRQFVTTHDASQLGELKEYIDQKLYDVKICDPAIGSGAFPMGLLRELFFCRSAIEPNIVENAANIKRHIIQNNIYGVDIERGAVDIARLRFWLSLIVDEKSPEALPNLDFKIMQGNSLLEQYKGVDLSTEGHHHHHH”, the “soluble on expression in E. coli” value is “not soluble”.

As to “MSLDVCRGMLCGFGAVCEPSVEDPGRASCVCKKNVCPAMVAPVCGSDASTYSNECELQRAQCNQQRRIRLLRQGPCGSRDPCANVTCSFGSTCVPSADGQTASCLCPTTCFGAPDGTVCGSDGVDYPSECQLLRHACANQEHIFKKFDGPCDPCQGSMSDLNHICRVNPRTRHPEMLLRPENCPAQHTPICGDDGVTYENDCVMSRIGAARGLLLQKVRSGQCQTRDQCPETCQFNSVCLSRRGRPHCSCDRVTCDGAYRPVCAQDGHTYDNDCWRQQAECRQQQTIPPKHQGPCDQTPSPCRGAQCAFGATCTVKNGKAVCECQRVCSGGYDPVCGSDGVTYGSVCELESMACTLGREIRVARRGPCDRCGQCRFGSLCEVETGRCVCPSECVESAQPVCGSDGHTYASECELHVHACTHQISLYVASAGHCQTCGETVCTFEGHHHHHH”, the “soluble on expression in E. coli” value is reported as “not soluble”.

As for “MSLDVINKYGTPLKLSYLPKISSQIQKAKQWFGEAITNNNYSGTYTYCYCTKSSHFSFVLNEALKNDIHIETSSAYDIPIVRILFENNKITKATNVICNGYKRPEYTDYICDLINEGFNCTPILDNLDEITAYEKGIETSCNLGIRLATDEEPKFEFYTSRLGFRYNDVVQFYKEKIEPNPKFKLKMLHFFINTGIKDTTYYWSELSRFVHMYCTMKKINPDMDSIDIGGGWPIKTSVHFEYDYKYMADQIVKTIKKVCDEEGVPTPNIFTEFGSFTVGESGAAVYSVLGSKLQNDKEEWYMIDSSFITTLPDVWGLSQKYLLLAVNGWDKPYKKVKLGGITCDSMDYYNSEAHQNLVFMPELDEKEPTYIGFFHTGAYQESLGGYGGIQHCLVPAPKHILIDKDADGNFSYNLFAPEQTKESMLKILGYKAEGHHHHHH”, the “soluble on expression in E. coli” value is “soluble”.

With “MSLDVNYVPQNTSDAPAIPSAALQQLTWTPVDQSKTQTTQLATGGQQLNVPGISGPVAAYSVPANIGELTLTLTSEVNKQTSVFAPNVLILDQNMTPSAFFPSSYFTYQEPGVMSADRLEGVMRLTPALGQQKLYVLVFTTEKDLQQTTQLLDPAKAYAKGVGNSIPDIPDPVARHTTDGLLKLKVKTNSSSSVLVGPLFGSSAPAPVTVGNTAAPAVAAPAPAPVKKSEPMLNDTESYFNTAIKNAVAKGDVDKALKLLDEAERLGSTSARSTFISSVKGKGEGHHHHHH”, the “soluble on expression in E. coli” value is listed as “soluble”.

In the case of “MSLDWFTVDDSVLRVALVFPLQGSAGIFGPTCELCARLAAEEVNRAGGVLGKELRLLPVDGGAPPREIADRVAALVDLGVVQGVTGWHISSVRQALAPRIAHRVPYVYTALYEGGEHTAGVFLTSETPRDQLRPAMRLLARERGVRRWFVIGNDYVWPRRTARAAHSYARECGGSIGGEVYLPLGTHDFEPVLRRIERSDADAVLMLLVGSDAVRFNRAFAAAGLDGRCLRLSTLMDENMLLASGPAATADLYSTAGFFASLANQDTLDFHGRYAARYGVEAPALGSLGESCYEGVLLLAALIGRAGTLEVSAIGAAADTVSYEGPRGLLRLRGGHVRQRIYLARADGLDFDVVAELDLHSSRPEGHHHHHH”, the “soluble on expression in E. coli” value is “not soluble”.

As to “MSLEASLVKLSEQELTSLNYAFQQMRKPLQTINYDYAVWDRTYSYMKSNSASAKRYYEKHEYPDDTFKSLKVDGVFIFNRTNQPVFSKGFNHRNDIPLVFELTDFKQHPQNIALSPQTKQAHPPASKPLDSPDDVPSTHGVIATRYGPAIYSSTSILKSDRSGSQLGYLVFIRLIDEWFIAELSQYTAAGVEIAMADAADAQLARLGANTKLNKVTATSERLITNVDGKPLLKLVLYHTNEGHHHHHH”, the “soluble on expression in E. coli” value is given as “not soluble”.

“MSLEELLERVFSFSDVDKLIDFISYELQKPVILESADFFLLAYNSYYINHFDSANQQTIFSKKCPVQIFERFLKDGIIEKLKTEPEPFRVNKIESIGLNQRVVVSAKHKGEVMGYIWIQELDQNLTDEELDFLYETSFHVGKIIYKTNKLKQEKEEKAEDLIKRAIYQQFTSEKELRREAERINTVLPSMFSVVILHAANGDGEAVEDLKENIRSYLNLRDKVSHVLTIESNIVIVVASFSQKSSVSSAASEFINKLLTHFHFQKIPTPIYIGIGNEYNHLLKLGKSYTEALEVIKAAEITGNQENIPYEYAKLGIYRYLESIEQKNEFLEYENKDLALLKAKDEESSTELLKTLEVYLLNNCKTKPAAEQLFIHQNTLNYRIKQITEMTSIDLSDFRTRCQLYLDLMLMKKKEGGSHHHHHH”: the “soluble on expression in E. coli” value is listed as “soluble”.

“MSLEGEQHSRERDQQAIQYHYDVSNDFYKLWLDERMVYSCAYFPGGQETLDEAQTAKLDYICRKLQLRPGERLLDIGCGWGGLSLYAAQHYGVQVLGVTLSQAQLQEGQARVRVAGLEGQVQLELRDYRDVLSRGPAQFDKIASVGMAEHVGRRNMPEYFRSAYAALKPGGLMLNHAIGDGIGQARVPMWLQSGNFARKYVFPDGELLPVWETLKYASEQLFEVRDVENLREHYALTIGHWAARLEAHRPEALALLGEERLRLWRLYLGATSYYFRKGHLTLFQSLLAKPDAERAVPLPLSRAGLYREGHHHHHH”: the “soluble on expression in E. coli” value is reported as “soluble”.

For “MSLEIDADRFFKLFDSSVQGLRQCRLISAAFELGVFKALEVPLSAGALAEKIGCDPALMPHFCEALHSLGLLDRFEEGISEEKENAQIAVKGTGEAEGKEKPGDEPGDRIKNDGAVYFVSELSATYLPGNSPFSQKHYLAERIRNVERWSRLPQIMRQGPDIVEKGPFFGEVVHCMAENARCGLLQETVRVVMENVDFTNVKKFLDLGGGHGLYSIALTSLNENLQAFVFDLPPVTSETRYFIDKYGASRVDIIPGDFFKDDIGSDYDVIFSSFNPGGKVPSLIPKIAAALKPEGVFITRQVPDESMKSSPLMSLDWNLWTFEDVKKGSSGYSFENSVLFSEYIDMLGNHGLEVFRALDMTDGSRIVFAWKVTEGHHHHHH”, the “soluble on expression in E. coli” value was “not soluble”.

For the sequence “MSLEKSSRINGGKMNREEVKDSVLLGDSLEIMRRIDDCIYDLIFLDPPYYLQMTPKRLKRWNNRSVPQTVREYWDAFPSFEAYDSFISSVLKEAKRLMSDTSTIWAIGTYHNIFRIGKIMQDMGFWILNDVVWIKTNPMPNWLGVRFTNSTETLIWATKGKEQKNYTYNRNLAKEFGLGKTANNVWVMKTSRGNERVRDENRKSVHPAQKPLELMKRIILSSTKEGDLILDPFAGVGTTGVAASMLGRNFTLIEKDPVYYRAMLSRFSRFGIRYTEKIEGHHHHHH”, the “soluble on expression in E. coli” value was “not soluble”.

Take “MSLEMEKYLSVTTLTKYLKMKFDKDPYLERVYLTGQVSNFRKRPTHQYFSLKDDHAVIQATIWSGIYQKLGFDLEEGMKINVIGRVQVYEPSGSYSIIIEKVEPDGVGALAIQFEQLKKKLTEEGLFQERFKQALPQFSKRIGVVTSRSGAVIRDIITTVSRRFPGVDILLYPTKVQGEGAAEEIARNIARANQRDDLDLLIIGRGGGSIEDLWAFNEEIVVRAIFESRLPVISSVGHETDVTLADFVADRRAATPTAAAELATPVTKLDVLAHLQNQEKRMVTAVRNVLSKKQEALKKCSQSVIFRQPERLYDGYLQRLDQLQLRLKQSLRTRISDNKQLVQARTHQLVQLSPVTKIQRYQDRLGQLDKLLGSQMALVYDAKVAEAKRLSEALLMLDTSRIVARGYAIVKKEESVVDSVESLKKKDQVTLLMRDGQVELEVKDVKTKEIEGHHHHHH”: the “soluble on expression in E. coli” value was “not soluble”.

With “MSLENGVLKVGLCAAWPPFESRNETTGEIEGFDVDLAKALGEELGVEVEIIDAEWQALLGGLSKGDYDTLITCMSKKEASVENVEMSDVYYELNDVIVVRNDNNEINSVSDLSGKIVGVQLGSGSEQAVDALSGIQEIKRYNYNPEAMIDLQNNRSDAVVVGYTYALSEISKYPDLKVLDTPVASAEIVMVQKEGAEELTAKLNEALSNIKENGKYDEIQDKWLSLEEGHHHHHH”, the “soluble on expression in E. coli” value is recorded as “soluble”.

As for “MSLERAVPLAVPLGQTEVFQALQRLHMTIFSQSVSPCGKFLAAGNNYGQIAIFSLSSALSSEAKEESKKPVVTFQAHDGPVYSMVSTDRHLLSAGDGEVKAWLWAEMLKKGCKELWRRQPPYRTSLEVPEINALLLVPKENSLILAGGDCQLHTMDLETGTFTRVLRGHTDYIHCLALRERSPEVLSGGEDGAVRLWDLRTAKEVQTIEVYKHEECSRPHNGRWIGCLATDSDWMVCGGGPALTLWHLRSSTPTTIFPIRAPQKHVTFYQDLILSAGQGRCVNQWQLSGELKAQVPGSSPGLLSLSLNQQPAAPECKVLTAAGNSCRVDVFTNLGYRAFSLSEGHHHHHH”, the “soluble on expression in E. coli” value is recorded as “not soluble”.

Regarding “MSLERPEEYLPNIFEGKKGVIVDYGCGNGFYCKYLLEFATKLYCIDINVIALKEVKEKFDSVITLSDPKEIPDNSVDFILFANSFHDMDDKQHVISEVKRILKDDGRVIIIDWRKENTGIGPPLSIRMDEKDYMGWFSNFVVEKRFNPTPYHFGLVLKRKTSEGHHHHHPDPNSSSVDKLAAALEHHHHHH”, the “soluble on expression in E. coli” value was “soluble”.

“MSLESILDVLSVMYINAQLPREQRHRWRLLFSSELHGHSFSQLCGHITHRGPCVAVLEDHDKHVFGGFASCSWEVKPQFQGDNRCFLFSICPSMAVYTHTGYNDHYMYLNHGQQTIPNGLGMGGQHNYFGLWVDVDFGKGHSRAKPTCTTYNSPQLSAQENFQFDKMEVWAVGDPSEEQLAKGNKSILDADPEAQALLEISGHSRHSEGLREVPDDEGHHHHHH”: the “soluble on expression in E. coli” value is reported as “not soluble”.

With “MSLESIQSSLKHMTGNRSFEKQFTQLKEAVFRSPHVQLFLEEHPSLSPITLEQGLSKLYEYQKEQSHCAHCPGLQKCPNLMKGYQPTLYVERDSLELSYSPCPLKEEEEREKKKRSLIRSLYIPKEILEAKFDDVESEPGRSIASHRALEFALSAKPGEDGMGLYLYGKFGVGKTFLMGAIANELKDRGIDSTIVYVPDFFRELKQSIGDGTFQQKLDFVKNAQVLIFDDIGAETMTSWVRDDVLGVILQYRIMEKLPTLFTSNYDYDELEEHLAYNDKSGTELLKAKRVMERIRHYTVSVMVQGQNRREHQSEGHHHHHH”, the “soluble on expression in E. coli” value is “soluble”.

Regarding “MSLESSDDAPLPTDVPKDAAEALVCFLTQHVRALMSPHADPVPSCPRCGGTQIHKKGYAPLQTGPLPTYQCEGCDHYFSRLSGTPLSGHRIRRSAEELITMLPQAIGCPEAARRLGVMERTIRNTVRMFRRWVLELDPSGHHERHIRLGGRFTAVRDQAPPVVDEQIAYEDVALTAKLLEDFETIHSNKHFPMPDCPACGADRLVTKGTFSGFARFKCASCGKQFNRRTGTPFTRNRKVYERQRALIRYLGLPLSITQLAEIVGGDHGNVARLIREFRERCDQLDPTGQLSHRIRAGARPAEDTPCIQCGARHVRFDVRGITPGKCAVCGRLISMRRAIIERDGVLEVGPWQWAEQLQQEGHHHHHH”, the “soluble on expression in E. coli” value is listed as “not soluble”.

Take “MSLEVGFAPAEFTVTDKDGRKVFLSDYKGKYVLIYHWGLCPGTFWVNPKITDLYQKYHEKGLEVLGFTRDDLLKSLQGSSEEFKKDERVQGLLSHPWTTVYTEDEGNGFIVKDLYFSGVPILMLISPDGITLARGYTKAYEEVKNLLDRNLGNKEGHHHHHH”: the “soluble on expression in E. coli” value is reported as “soluble”.
